Laboratory results from patent publication US20210198347A1 (Chugai, published 2021).

T1: Native human C1r enzyme (Comptech A102) (human, UniProt P00736 18-705)
T1 construct: mature
T1 sequence (looked up): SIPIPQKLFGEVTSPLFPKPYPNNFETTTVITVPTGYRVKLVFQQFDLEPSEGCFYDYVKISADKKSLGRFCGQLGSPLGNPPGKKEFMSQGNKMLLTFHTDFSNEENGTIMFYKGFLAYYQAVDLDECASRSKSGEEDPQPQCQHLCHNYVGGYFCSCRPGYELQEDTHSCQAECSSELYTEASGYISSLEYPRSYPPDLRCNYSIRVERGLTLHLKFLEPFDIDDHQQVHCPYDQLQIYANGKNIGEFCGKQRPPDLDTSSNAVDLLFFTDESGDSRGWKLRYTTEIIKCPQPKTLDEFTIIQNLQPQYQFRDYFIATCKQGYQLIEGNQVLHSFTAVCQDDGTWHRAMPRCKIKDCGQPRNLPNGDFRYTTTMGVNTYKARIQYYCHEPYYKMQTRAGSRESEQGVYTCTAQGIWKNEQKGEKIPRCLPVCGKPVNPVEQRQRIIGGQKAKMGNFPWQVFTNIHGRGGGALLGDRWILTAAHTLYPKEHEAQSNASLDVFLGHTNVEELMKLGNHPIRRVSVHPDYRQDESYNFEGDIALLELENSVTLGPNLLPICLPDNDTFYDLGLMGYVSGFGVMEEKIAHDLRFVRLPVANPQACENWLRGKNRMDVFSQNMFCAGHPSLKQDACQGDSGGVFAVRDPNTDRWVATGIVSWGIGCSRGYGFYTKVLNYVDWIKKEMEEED


Molecular target: T1, Native human C1r enzyme (Comptech A102)
Test: SPR (BIACORE T200, 37 degrees C, pH 7.4), antibody captured by protein A/G, C1r 25 nM as a dimer
Description: The binding specificities of human C1r CUB1-EGF-CUB2 binders are determined at 37 degrees C. using BIACORE® T200 instrument (GE Healthcare). Recombinant Protein A/G (Pierce) is immobilized onto all flow cells of a CM4 sensor chip using an amine coupling kit (GE Healthcare). Antibodies and analytes are prepared in 7(+) buffer (20 mM ACES, 150 mM NaCl, 1.2 mM CaCl₂, 0.05% Tween 20, 1 mg/mL BSA (IgG-free), 1 mg/mL CMD, 0.005% NaN₃, pH 7.4). Each antibody is captured onto the sensor surface by protein A/G. Antibody capture levels are aimed at 100 resonance unit (RU). Native human C1r enzyme (Comptech A102) (at 25 nM as a dimer) or recombinant human C1r CCP1-CCP2-SP-FLAG (at 50 nM as a monomer) is injected, followed by dissociation. Sensor surface is regenerated each cycle with 10 mM Glycine-HCl pH 1.5. It may be determined that C1r CUB1-EGF-CUB2 binders bound to the native human C1r enzyme , but not recombinant human C1r CCP1-CCP2-SP-FLAG, which is a truncated protein lacking the CUB1-EGF-CUB2 domain of C1r.

Row | binding result | Binder
1 | binds | COR0212bb-SG1148 (antibody, human IgG1, kappa, V domains shown, Anti-C1r antibody) VH: QEQLKESGGGLVTPGGTLTLTCTASGFSLSSYDMSWVRQAPGKGLDWIGIINTGGSAYYATWAKGRFTISKTSTTVDLKITSPTTEDTATYFCGRKINDAFDPWGPGTLVTVSS VL: AQVLTQTPFSVSAAVGGTVTINCQASESISSNLAWYQQKPGQPPKLLIYDASDLASGVPSRFKGSGSGKQFTLTISGVQCDDAATYFCQHGWIYDTIDSNCFGGGTKVEIKR
2 | binds | COR0011bb-SG1148 (antibody, human IgG1, kappa, V domains shown, Anti-C1r antibody) VH: QSLEESGGRLVTPGTPLTLTCTASGFTFSGYYMCWVRQTPGKGLEYIGIIASSGNTYYANWAKGRFTISKTSSTTVDLKMTSLTTEDTATYFCAKPESDYVNGMGLWGPGTLVTVSS VL: DIVMTQTPASVSDPVGGTVTIKCQASQSIYNLLSWYQQKPGQRPKLLIYDASKLASGVPSRFKGSGYGTDFTLTISDLGCADAATYYCQSNYGYSRTDDTFFYGFGGGTKVEIKR
3 | binds | COR0208cc-SG1148 (antibody, human IgG1, kappa, V domains shown, Anti-C1r antibody; also called COR208; COR208cc(-SG1148)) VH: QSVEESGGRLVTPGTPLTLTCTVSGFSLSNYYMNWVRQAPGKGLEWIGIIASDDNTWYASWAKGRFTISKTSTTVDLKITSPTTEDTATYFCARDLDVGYGSGWYDLWGQGTLVTVSS VL: AAVLTQTPSPVSVAVGGTVTINCQASQSVYNNNYLAWYQQEPGHRPKLLIYRASKLASGVPSRFSGSGSGTQFTLTISGVQCDDAATYYCLGGYDDFTDTTFGGGTKVEIKR

Continued, binder first:

Row | Binder | binding result
4 | COR0067ff-SG1148 (antibody, human IgG1, kappa, V domains shown, Anti-C1r antibody) VH: QSLEESGGGLVQPEGSLTLTCKASGIDFSSNAMCWVRQAPGKGLEWIGCIYTGSTTIWYASWAKGRFTISKTSSTTVTLQLNSLTVADTATYFCARRDSSSGYAFKLWGPGTLVTVSS VL: DIVMTQTPSSVSAAVGGTVTIKCQASENIYSNLAWYQQKSGQPPNLLIYGASTLESGVPSRFKGSGSGTEFTLTISDLECADAAIYYCQCTYDDSSTFGGGTKVEIKR | binds
5 | COR0338gg-SG1148 (antibody, human IgG1, kappa, V domains shown, Anti-C1r antibody) VH: QSLEESGGGLVQPEGSLTLTCKASGIDFSSNAMCWVRQAPGKGLEWIACIYTGSTTIWYATWAKGRFTISKTSSTTVTLQLNSLTVADTATYFCARRASSSGYAFKLWGPGTLVTVSS VL: DVVMTQTPFSVSAAVGGTVTIKCQASESIYSNLAWYQQKPGQPPNLLIYGASTLESGVPSRFKGSGSGTEFTLTISDLECDDAAIYYCQCTYDDSSTFGGGTKVEIKR | binds
6 | COR0205gg-SG1148 (antibody, human IgG1, kappa, V domains shown, Anti-C1r antibody; also called COR205gg(-SG1148)) VH: QSLEESGGGLFKPTDTLTLTCTVSGFSLSSNAMSWVRQAPGKGLEYIGIIYLTGVTYYATWAKGRFTISKTSTTVDLKITSPTTEDTATYFCAGGEFSLWGPGTLVTVSS VL: DIIMTQTPASVEAAVGGTVTIKCQASQGIDNYFSWHQQKPGQPPKLLIYKASTLASGVSSRFKGSGSGTEFTLTISDLECDDAATYYCQCTYGYNINDNYGNAFGGGTKVEIKR | binds
7 | COR0278bb-SG1148 (antibody, human IgG1, kappa, V domains shown, Anti-C1r antibody) VH: QSLEESGGRLVTPGTPLTLTCTASGFSLSSYDMTWVRQAPGKGLEWIGIIYTLGSAYYASWAKGRFTISRTSTTVDLKMTSPTTEDTATYFCARGGDSYGAVDTAFDLWGPGTLVTVSS VL: AQVLTQTPSPVSAAVGGTVTISCQSSPSVYSNYLSWYQQKPGQPPKLLIYRASRLASGVPSRFKGSGSGTQFTLTISEVQCDDAATYYCQGYFGNGINAFGGGTKVEIKR | binds
8 | COR0058bb-SG1148 (antibody, human IgG1, kappa, V domains shown, Anti-C1r antibody) VH: QSVEESGGRLVTPGTPLTLTCTASGFDISNYNMQWVRQSPGKGLEWIGIIWSGGYTDYANWAKGRFTISATSTTVDLKSTSPTTEDTATYFCARQGANFGDYTVDLWGPGTLVTVSS VL: AYDMTQTPASVEVAVGGTVTIKCQASQSIRSSLAWYQQKPGQRPKLLIYRASTLASGVSSRFKGSGSGTQFTLTISGVECADAATYYCQQGYSNINVDNTFGGGTKVEIKR | binds
